This note sets out measurements from patent US20210145976A1 (ARO BIOTHERAPEUTICS, published 2021).

Numbering of substitutions follows the chain as printed.

The target of experiment [1] is T1, recombinant biotinylated CD71 extracellular domain (Sino Biologics) with an N-terminal 6His tag (human, UniProt P02786 89-760, biotinylated (sites not given)).
T1 construct: extracellular domain; also called hCD71; huCD71
The experiment can be described thus: screening ELISA.

In experiment [2] the target is T1, recombinant biotinylated CD71 …. The experiment in a line: screening ELISA, ratio. In general terms: In an ELISA, binding on a coated surface is turned into a signal by an enzyme label.

T1 sequence (P02786 other isoform, or with tags, fused parts or gaps): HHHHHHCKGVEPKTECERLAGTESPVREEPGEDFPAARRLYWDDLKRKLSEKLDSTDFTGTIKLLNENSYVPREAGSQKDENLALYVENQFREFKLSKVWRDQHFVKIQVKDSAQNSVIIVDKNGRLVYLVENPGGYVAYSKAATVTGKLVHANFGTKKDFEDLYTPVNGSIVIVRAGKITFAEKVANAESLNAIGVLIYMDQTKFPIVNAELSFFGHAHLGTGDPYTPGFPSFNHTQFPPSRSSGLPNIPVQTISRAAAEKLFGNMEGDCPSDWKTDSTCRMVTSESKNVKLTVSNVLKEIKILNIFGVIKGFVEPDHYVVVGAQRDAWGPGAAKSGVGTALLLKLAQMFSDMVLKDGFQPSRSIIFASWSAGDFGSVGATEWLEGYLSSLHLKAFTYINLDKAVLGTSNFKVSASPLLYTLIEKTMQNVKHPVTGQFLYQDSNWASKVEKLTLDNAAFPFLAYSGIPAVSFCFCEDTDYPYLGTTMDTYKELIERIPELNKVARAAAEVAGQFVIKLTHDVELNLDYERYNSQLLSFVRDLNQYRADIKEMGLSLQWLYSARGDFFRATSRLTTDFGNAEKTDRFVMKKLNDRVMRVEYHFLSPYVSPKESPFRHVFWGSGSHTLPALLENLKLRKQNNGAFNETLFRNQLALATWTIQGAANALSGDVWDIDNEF

B1: SEQ ID NO 127 (designed binder)
chain: MLPAPKNLVVSRVTEDSARLSWTAPDAAFDSFPIPYGESPPSGEAIVLTVPGSERSYDLTGLKPGTEYVVIIRGVKGGGRSGPLSAISTT
notes: FN3 domain
As for B1, in experiment [1], the hCD71 was found to be 3.56e+06. For the same molecule, the “hCD71:HSA” value in experiment [2] was determined as 38.

B2: SEQ ID NO 113 (designed binder)
chain: MLPAPKNLVVSRVTEDSARLSWTAPDAAFDSFDIHYKEHSWWGEAIVLTVPGSERSYDLTGLKPGTEYIVPIPGVKGGGISRPLSAIFTT
notes: FN3 domain
In the case of B2, in experiment [1], the hCD71 stood at 2.14e+06. Besides, the “hCD71:HSA” value in experiment [2] turned out to be 95.

B3: SEQ ID NO 142 (designed binder)
chain: MLPAPKNLVVSRVTKDSARLSWTAPDAAFDSFHIAYEEATTYGEAIFLRVPGSERSYDLTGLKPGTEYEVKIHGVKGGADSKPLVAPFTT
notes: FN3 domain
Take B3: the hCD71 in experiment [1] amounted to 3.41e+06. Also, the “hCD71:HSA” value in experiment [2] was 1000.

B4: SEQ ID NO 121 (designed binder)
chain: MLPAPKNLVVSRVTEDSARLSWTAPDAAFDSFSIDYPEFPVRGEAIVLTVPGSERSYDLTGPKPGTEYNVTIQGVKGGFPSMPLSAIFTT
notes: FN3 domain
In the case of B4, the hCD71 in experiment [1] stood at 2.37e+06. The “hCD71:HSA” value in experiment [2] is 83.

B5: SEQ ID NO 124 (designed binder)
chain: B4 chain with P62L, N69A, Q73W, P80T, M82Q
notes: FN3 domain
For the molecule B5, the hCD71 in experiment [1] is 605000. The “hCD71:HSA” value in experiment [2] worked out at 175.

B6: SEQ ID NO 140 (designed binder)
chain: B4 chain with S33W, D35S, P37E, F39S, P40D, V41T, R42E, V47Y, T49R, P62L
notes: FN3 domain
On to B6, for which, in experiment [1], the hCD71 came to 4.18e+06. For the same molecule, in experiment [2], the “hCD71:HSA” value is 2610.

B7: SEQ ID NO 102 (designed binder)
chain: MLPAPKNLVVSRVTEDSARLSWTAPDAAFDSFSIDYDEPQPVGEAIVLTVPGSERSYDLTGLKPGTEYRVDIWGVKGGPTSGPLRATFTT
notes: FN3 domain
With B7, the hCD71 in experiment [1] stood at 3.48e+06. In addition, the “hCD71:HSA” value in experiment [2] was 258.

B8: SEQ ID NO 213 (designed binder)
chain: B7 chain with S33W, D35Y, D37W, P39I, Q40E, P41R, V42A, V47R, T49D
notes: FN3 domain
Regarding B8, in experiment [1], the hCD71 is 2.11e+06. Moreover, in experiment [2], the “hCD71:HSA” value was 215.

B9: SEQ ID NO 97 (designed binder)
chain: MLPAPKNLVVSRVTEDSARLSWTAPDAAFDSFFISYFEGWASGEAIHLYVPGSERSYDLTGLKPGTEYSVHIQGVKGGQPSTPLSAIFTT
notes: FN3 domain
As to B9, in experiment [1], the hCD71 was 2.41e+06. The “hCD71:HSA” value in experiment [2] was 1090.

B10: SEQ ID NO 91 (designed binder)
chain: MLPAPKNLVVSRVTEDSARLSWTAPDAAFDSFVIEYWERTQPGEAIVLTVPGSERSYDLTGLKPGTEYDVWISGVKGGKWSEPLSAIFTT
notes: FN3 domain
With B10, the hCD71 in experiment [1] is 1.44e+06. Besides, the “hCD71:HSA” value in experiment [2] was found to be 800.

B11: SEQ ID NO 128 (designed binder)
chain: MLPAPKNLVVSRVTEDSARLSWTAPDAAFDSFIINYIEIVQYGEAIVLTVPGSERSYDLTGLKPGTEYPESIWGVKGGGASSPLSAIFTT
notes: FN3 domain
For B11, the hCD71 in experiment [1] turned out to be 664000. The “hCD71:HSA” value in experiment [2] stood at 204.

B12: SEQ ID NO 111 (designed binder)
chain: MLPAPKNLVVSRVTEDSARLSWTAPDAAFDSFWIYYYESVGTGEAIVLTVPGSERSYDLTGLKPGTEYFVDISGVKVGTYSLPLSAIFTT
notes: FN3 domain
Take B12: in experiment [1], the hCD71 stood at 2.4e+06. For the same molecule, the “hCD71:HSA” value in experiment [2] was found to be 322.

B13: SEQ ID NO 148 (designed binder)
chain: MLPAPKNLVVSRVTEDSARLSWTAPDAAFDSFHIEYEEQYSTGEAIYLRVPGSERSYDLTGLKPGTEYHVDIEGVKGGRRSFPLNAFFTT
notes: FN3 domain
In the case of B13, in experiment [1], the hCD71 stood at 3.98e+06. The “hCD71:HSA” value in experiment [2] turned out to be 1990.

B14: SEQ ID NO 99 (designed binder)
chain: MLPAPKNLVVSRVTEDSARLSWTAPDAAFDSFGIQYNEFVFRGEAIVLTVPGSERSYDLTGLKPGTEYFVPISGVKGGDDSRPLSAIFTT
notes: FN3 domain
In the case of B14, the hCD71 in experiment [1] turned out to be 853000. In experiment [2], the “hCD71:HSA” value was 105.

B15: SEQ ID NO 107 (designed binder)
chain: B14 chain with G33F, N37T, F39S, V40H, F41W, R42V, F69A, S73E, D80S, R82T
notes: FN3 domain
Take B15: the hCD71 in experiment [1] was 420000. The “hCD71:HSA” value in experiment [2] came to 104.

B16: SEQ ID NO 143 (designed binder)
chain: MLPAPKNLVVSRVTEDSARLSWTAPDAAFDSFHIAYEEADSEGEAIYLRVPGSERSYDLTGLKPGTEYSVNIQGVKGGIVSFPLHAEFTT
notes: FN3 domain
B16: the hCD71 in experiment [1] is 3.94e+06. For the same molecule, the “hCD71:HSA” value in experiment [2] came to 426.

B17: SEQ ID NO 119 (designed binder)
chain: MLPAPKNLVVSRVTEDSARLSWTAPDAAFDSFHIEYEETPQKGEAIFLRVPGSERSYDLTGLKPGTEYVVNIRGVKGGDLSSPLGALFTT
notes: FN3 domain
Turning to B17, the hCD71 in experiment [1] was determined as 3.16e+06. In experiment [2], the “hCD71:HSA” value turned out to be 1710.

B18: SEQ ID NO 89 (designed binder)
chain: MLPAPKNLVVSRVTEDSARLSWTAPDAAFDSFHISYEETPVVGEAIYLRVPGSERSYDLTGLKPGTEYTVAIHGVKGGRESTPLIAPFTT
notes: FN3 domain
Turning to B18, the hCD71 in experiment [1] is 3.44e+06. Moreover, the “hCD71:HSA” value in experiment [2] came out at 1720.

B19: SEQ ID NO 306 (designed binder)
chain: MLPAPKNLVVSRVTEDSARLSWTAPDAAFDSFYIEYFETQGYGEAIVLTVPGSERSYDLTGLKPGTEYYVAIYGVKGGYLSRPLSAIFTT
notes: FN3 domain
Turning to B19, in experiment [1], the hCD71 stood at 4.07e+06. In addition, the “hCD71:HSA” value in experiment [2] came to 1810.

B20: SEQ ID NO 103 (designed binder)
chain: B19 chain with P3L, Y33A, T39Y, Q40T, Y42E, A71G
notes: FN3 domain
B20: in experiment [1], the hCD71 is 4.83e+06. In addition, the “hCD71:HSA” value in experiment [2] was found to be 4020.

B21: SEQ ID NO 100 (designed binder)
chain: B19 chain with Y33W, F37W, T39V, Q40V, Y42F, Y69W, A71G, Y79N, L80P, R82V
notes: FN3 domain
Consider B21, for which, in experiment [1], the hCD71 turned out to be 2.95e+06. The “hCD71:HSA” value in experiment [2] was found to be 1260.

B22: SEQ ID NO 129 (designed binder)
chain: B19 chain with Y33D, F37Y, T39A, Q40V, Y42A, Y69T, A71G, Y79W, R82K, A86V
notes: FN3 domain
Regarding B22, in experiment [1], the hCD71 turned out to be 2.31e+06. The “hCD71:HSA” value in experiment [2] came out at 1540.

B23: SEQ ID NO 130 (designed binder)
chain: MLPAPKNLVVSRVTEDSARLSWTAPDAAFDSFHIPYVEAEVPGEAIQLHVPGSERSYDLTGLKPGTEYYVEIWGVKGGFYSPPLIAEFTT
notes: FN3 domain
As to B23, in experiment [1], the hCD71 is 1.45e+06. Also, the “hCD71:HSA” value in experiment [2] came out at 239.

B24: SEQ ID NO 106 (designed binder)
chain: MLPAPKNLVVSRVTEDSARLSWTAPDAAFDSFTIAYEEHGLVGEAIYLRVPGSERSYDLTGLKPGTEYHVGIMGVKGGVFSSPLSAIFTT
notes: FN3 domain
Turning to B24, in experiment [1], the hCD71 stood at 594000. For the same molecule, the “hCD71:HSA” value in experiment [2] worked out at 495.

B25: SEQ ID NO 109 (designed binder)
chain: B24 chain with T33H, H39L, G40V, L41T, V42E, H69L, G71D, M73E, V79H, F80L
notes: FN3 domain
As for B25, the hCD71 in experiment [1] came to 4.83e+06. The “hCD71:HSA” value in experiment [2] came to 3860.

B26: SEQ ID NO 220 (designed binder)
chain: MLPAPKNLVVSRVTEDSARLSWTAPDAAFDSFHIIYEEDGTEGEAIYLRVPGSERSYDLTGLKPGTEYEVDIEGVKGGVLSWPLFAEFTT
notes: FN3 domain
Turning to B26, the hCD71 in experiment [1] stood at 4.25e+06. Further, the “hCD71:HSA” value in experiment [2] turned out to be 452.

B27: SEQ ID NO 162 (designed binder)
chain: B3 chain with K15E, E69D, K71W, H73E, A79T, D80I, K82G, V85S, P87I
notes: FN3 domain
As to B27, in experiment [1], the hCD71 amounted to 3.88e+06. For the same molecule, in experiment [2], the “hCD71:HSA” value turned out to be 2100.

B28: SEQ ID NO 87 (designed binder)
chain: MLPAPKNLVVSRVTEDSARLSWTAPDAAFDSFAIEYYEPVPAGEAIYLDVPGSERSYDLTGLKPGTEYDVTIYGVKGGYYSHPLFASFTT
notes: FN3 domain
Consider B28, for which the hCD71 in experiment [1] turned out to be 2.83e+06. Moreover, the “hCD71:HSA” value in experiment [2] was determined as 2580.

B29: SEQ ID NO 94 (designed binder)
chain: MLPAPKNLVVSRITEDSARLSWTAPDAAFDSFGIYYYEWWSTGEAIVLTVPGSERSYDLTGPKPGTEYYVKISGVKGGYRSYPLSAIFTT
notes: FN3 domain
Turning to B29, the hCD71 in experiment [1] amounted to 439000. The “hCD71:HSA” value in experiment [2] was determined as 44.

B30: SEQ ID NO 81 (designed binder)
chain: MLPAPKNLVVSRVTEDSARLSWTAPDAAFDSFVIEYREGAWYGEAIVLTVPGSERSYDLTGLKPGTEYAVYIPGVKGGPRSFPLSAIFTT
notes: FN3 domain
In the case of B30, the hCD71 in experiment [1] came out at 537000. Moreover, the “hCD71:HSA” value in experiment [2] was 19.

B31: SEQ ID NO 126 (designed binder)
chain: MLPAPKNLVVSRVTEDSARLSWTAPDAAFDSFSIDYLELGESGEAIVLTVPGSERSYDLTGLKPGTEYWVYIFGVKGGYPSAPLSAIFTT
notes: FN3 domain
On to B31, for which, in experiment [1], the hCD71 was 4.49e+06. In addition, in experiment [2], the “hCD71:HSA” value was 2570.

B32: SEQ ID NO 139 (designed binder)
chain: B31 chain with S33D, D35S, L37W, L39S, E41K, S42Y, R55S, W69L, Y71D, A82E
notes: FN3 domain
Regarding B32, the hCD71 in experiment [1] was 3.03e+06. Moreover, in experiment [2], the “hCD71:HSA” value was determined as 1440.

B33: SEQ ID NO 84 (designed binder)
chain: MLPAPKNLVVSRVTEDSARLSWTAPDAAFDSFPIYYWEVFPAGEAIELDVPGSERSYDLTGLKPGTEYFVRIEGVKGGASSYPLRAEFTT
notes: FN3 domain
Turning to B33, in experiment [1], the hCD71 was determined as 1.73e+06. The “hCD71:HSA” value in experiment [2] turned out to be 449.

B34: SEQ ID NO 120 (designed binder)
chain: MLPAPKNLVVSRVTEDSARLSWTAPDAAFDSFRIEYIEWWVGGEAIVLTVPGSERSYDLTGLKPGTEYWVDIKGVKGGKRSYPLSAIFTT
notes: FN3 domain
With B34, in experiment [1], the hCD71 was 3.64e+06. The “hCD71:HSA” value in experiment [2] worked out at 1970.
